{
  "source": "paper PMC5357909",
  "about": "“Structural and functional studies of a noncanonical Dicer from Entamoeba histolytica” (Scientific Reports, 2017)",
  "binders": {"B1": {"name": "RNA50 (dsRNA)", "RNA 1": "GGGAGAAACGCGGCCUCUUCUUAUUUAUGGCGACAUGUUGUGCCUCUCCC", "RNA 2": "GGGAGAGGCACAACAUGUCGCCAUAAAUAAGAAGAGGCCGCGUUUCUCCC"}, "B2": {"name": "RNA70 (dsRNA)", "RNA 1": "GGGAGAAACGCGGCCUCUUCUUAUUUAUGGCGACAUGUUGUGCCACAUAUUGAGCCAGUAGCGCUCUCCC", "RNA 2": "GGGAGAGCGCUACUGGCUCAAUAUGUGGCACAACAUGUCGCCAUAAAUAAGAAGAGGCCGCGUUUCUCCC"}, "B3": {"name": "RNA100 (dsRNA)", "RNA 1": "GGGAGAAACGCGGCCUCUUCUUAUUUAUGGCGACAUGUUGUGCCACAUAUUGAGCCAGUAGCGCGGUGUAUUAUACCAGACCUUAUUGGUAUGGUCUCCC", "RNA 2": "GGGAGACCAUACCAAUAAGGUCUGGUAUAAUACACCGCGCUACUGGCUCAAUAUGUGGCACAACAUGUCGCCAUAAAUAAGAAGAGGCCGCGUUUCUCCC"}, "B4": {"name": "RNA25 (dsRNA)", "RNA 1": "GGGAGAAACGCGGCCUCUUUCUCCC", "RNA 2": "GGGAGAAAGAGGCCGCGUUUCUCCC"}},
  "key": {"[1]": {"target": "T1, EA256 (EhRNaseIII-AadsRBD chimera) (Entamoeba histolytica / Aquifex aeolicus, UniProt C4LU64 2-256+O67082:145-221, internal_change)", "T1 sequence": "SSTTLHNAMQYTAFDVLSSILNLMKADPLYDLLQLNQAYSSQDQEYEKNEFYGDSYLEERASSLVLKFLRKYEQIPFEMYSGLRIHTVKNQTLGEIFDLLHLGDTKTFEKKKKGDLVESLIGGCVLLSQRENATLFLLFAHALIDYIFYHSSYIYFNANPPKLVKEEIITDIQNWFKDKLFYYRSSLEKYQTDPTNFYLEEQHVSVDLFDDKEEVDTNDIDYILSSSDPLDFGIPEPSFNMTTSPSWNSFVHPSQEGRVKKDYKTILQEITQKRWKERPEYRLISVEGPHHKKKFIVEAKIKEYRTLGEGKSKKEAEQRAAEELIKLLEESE", "test": "EMSA; 5 mM Mg2+; completely bound at 1e-4 M; EMSA (1x): 30 mM Tris-HCl pH 7.5, 30 mM NaCl, 5 mM MgCl2, 1 mM DTT, 0.1 mM EDTA, 5% glycerol; room temperature 10 min then ice 20 min; 6% native PAGE, 0.5x TBE", "settings": "protein: recombinant, tags: His-Sumo removed by Ulp1, chain copies: 2, blunt"}, "[2]": {"target": "T1, EA256 (EhRNaseIII-AadsRBD chimera)", "test": "EMSA; 5 mM Mg2+; more than 70% bound at 1e-4 M; EMSA (1x): 30 mM Tris-HCl pH 7.5, 30 mM NaCl, 5 mM MgCl2, 1 mM DTT, 0.1 mM EDTA, 5% glycerol; room temperature 10 min then ice 20 min; 6% native PAGE, 0.5x TBE", "settings": "protein: recombinant; tags: His-Sumo removed by Ulp1; chain copies: 2; blunt, 25 bp"}},
  "data": [
    {"binder": "B1", "values": [
      {"measurement": "apparent K (half saturation)", "setting": "[1]; 50 bp", "result": "< 100", "unit": "µM"}
    ]},
    {"binder": "B2", "values": [
      {"measurement": "apparent K (half saturation)", "setting": "[1]; 70 bp", "result": "< 100", "unit": "µM"}
    ]},
    {"binder": "B3", "values": [
      {"measurement": "apparent K (half saturation)", "setting": "[1]; 100 bp", "result": "< 100", "unit": "µM"}
    ]},
    {"binder": "B4", "values": [
      {"measurement": "apparent K (half saturation)", "setting": "[2]", "result": "< 100", "unit": "µM"}
    ]}
  ]
}
